Experimental data from US20180155451A1 (published 2018).

B1: GpH7-B3 variant K334_02A/GpL16-k0 (antibody, human IgG1, kappa)
heavy: not shown
light: DIVMTQSPLSLPVTPGEPASISCQASESLVHSNRNTYLHWYLQKPGQSPQLLIYKVSNRFSGVPDRFSGSGSGTDFTLKISRVEAEDVGVYYCSQNTHVPPTFGQGTKVEIERTVAAPSVFIFPPSDEQLKSGTASVVCLLNNFYPREAKVQWKVDNALQSGNSQESVTEQDSKDSTYSLSSTLTLSKADYEKHKVYACEVTHQGLSSPVTKSFNRGEC
notes: homodimerized IgG1, mutation in both H chains; also called Ho Ab
B2: GpH7-B3 variant K334_10E/GpL16-k0 (antibody, human IgG1, kappa)
heavy: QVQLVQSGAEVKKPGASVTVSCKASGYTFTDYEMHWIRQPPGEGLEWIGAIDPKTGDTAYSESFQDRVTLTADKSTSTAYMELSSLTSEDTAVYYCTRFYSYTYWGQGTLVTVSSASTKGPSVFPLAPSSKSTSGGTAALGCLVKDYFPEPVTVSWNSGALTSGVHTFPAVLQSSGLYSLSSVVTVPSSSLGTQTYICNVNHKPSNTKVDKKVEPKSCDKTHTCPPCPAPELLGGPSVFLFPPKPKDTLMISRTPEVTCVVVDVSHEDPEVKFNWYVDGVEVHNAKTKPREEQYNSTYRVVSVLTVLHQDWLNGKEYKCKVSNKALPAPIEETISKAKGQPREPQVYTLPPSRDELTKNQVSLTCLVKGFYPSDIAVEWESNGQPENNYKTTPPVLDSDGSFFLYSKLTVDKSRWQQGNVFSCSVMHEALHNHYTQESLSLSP
light: DIVMTQSPLSLPVTPGEPASISCQASESLVHSNRNTYLHWYLQKPGQSPQLLIYKVSNRFSGVPDRFSGSGSGTDFTLKISRVEAEDVGVYYCSQNTHVPPTFGQGTKVEIERTVAAPSVFIFPPSDEQLKSGTASVVCLLNNFYPREAKVQWKVDNALQSGNSQESVTEQDSKDSTYSLSSTLTLSKADYEKHKVYACEVTHQGLSSPVTKSFNRGEC
notes: as for B1
B3: GpH7-B3 variant Q295_14T/GpL16-k0 (antibody, human IgG1, kappa)
heavy: not shown
light: DIVMTQSPLSLPVTPGEPASISCQASESLVHSNRNTYLHWYLQKPGQSPQLLIYKVSNRFSGVPDRFSGSGSGTDFTLKISRVEAEDVGVYYCSQNTHVPPTFGQGTKVEIERTVAAPSVFIFPPSDEQLKSGTASVVCLLNNFYPREAKVQWKVDNALQSGNSQESVTEQDSKDSTYSLSSTLTLSKADYEKHKVYACEVTHQGLSSPVTKSFNRGEC
notes: as for B1
B4: GpH7-B3 variant K334_09D/GpL16-k0 (antibody, human IgG1, kappa)
heavy: not shown
light: DIVMTQSPLSLPVTPGEPASISCQASESLVHSNRNTYLHWYLQKPGQSPQLLIYKVSNRFSGVPDRFSGSGSGTDFTLKISRVEAEDVGVYYCSQNTHVPPTFGQGTKVEIERTVAAPSVFIFPPSDEQLKSGTASVVCLLNNFYPREAKVQWKVDNALQSGNSQESVTEQDSKDSTYSLSSTLTLSKADYEKHKVYACEVTHQGLSSPVTKSFNRGEC
notes: as for B1
B5: GpH7-B3 variant S267_09D/GpL16-k0 (antibody, human IgG1, kappa)
heavy: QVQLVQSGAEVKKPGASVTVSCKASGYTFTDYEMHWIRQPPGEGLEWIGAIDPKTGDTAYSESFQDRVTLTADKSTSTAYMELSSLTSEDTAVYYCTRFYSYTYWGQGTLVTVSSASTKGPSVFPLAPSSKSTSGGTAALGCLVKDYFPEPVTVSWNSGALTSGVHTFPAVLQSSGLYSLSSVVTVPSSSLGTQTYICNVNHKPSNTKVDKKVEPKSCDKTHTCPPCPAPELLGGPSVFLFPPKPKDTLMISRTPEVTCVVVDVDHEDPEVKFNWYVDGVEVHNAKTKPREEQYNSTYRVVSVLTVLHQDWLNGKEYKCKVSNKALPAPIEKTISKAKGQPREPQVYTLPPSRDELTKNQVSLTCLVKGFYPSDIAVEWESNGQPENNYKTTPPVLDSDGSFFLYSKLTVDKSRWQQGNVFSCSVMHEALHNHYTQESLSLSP
light: DIVMTQSPLSLPVTPGEPASISCQASESLVHSNRNTYLHWYLQKPGQSPQLLIYKVSNRFSGVPDRFSGSGSGTDFTLKISRVEAEDVGVYYCSQNTHVPPTFGQGTKVEIERTVAAPSVFIFPPSDEQLKSGTASVVCLLNNFYPREAKVQWKVDNALQSGNSQESVTEQDSKDSTYSLSSTLTLSKADYEKHKVYACEVTHQGLSSPVTKSFNRGEC
notes: as for B1
B6: GpH7-B3 variant K334_03V/GpL16-k0 (antibody, human IgG1, kappa)
heavy: not shown
light: DIVMTQSPLSLPVTPGEPASISCQASESLVHSNRNTYLHWYLQKPGQSPQLLIYKVSNRFSGVPDRFSGSGSGTDFTLKISRVEAEDVGVYYCSQNTHVPPTFGQGTKVEIERTVAAPSVFIFPPSDEQLKSGTASVVCLLNNFYPREAKVQWKVDNALQSGNSQESVTEQDSKDSTYSLSSTLTLSKADYEKHKVYACEVTHQGLSSPVTKSFNRGEC
notes: as for B1
B7: GpH7-B3 variant S337_09D/GpL16-k0 (antibody, human IgG1, kappa)
heavy: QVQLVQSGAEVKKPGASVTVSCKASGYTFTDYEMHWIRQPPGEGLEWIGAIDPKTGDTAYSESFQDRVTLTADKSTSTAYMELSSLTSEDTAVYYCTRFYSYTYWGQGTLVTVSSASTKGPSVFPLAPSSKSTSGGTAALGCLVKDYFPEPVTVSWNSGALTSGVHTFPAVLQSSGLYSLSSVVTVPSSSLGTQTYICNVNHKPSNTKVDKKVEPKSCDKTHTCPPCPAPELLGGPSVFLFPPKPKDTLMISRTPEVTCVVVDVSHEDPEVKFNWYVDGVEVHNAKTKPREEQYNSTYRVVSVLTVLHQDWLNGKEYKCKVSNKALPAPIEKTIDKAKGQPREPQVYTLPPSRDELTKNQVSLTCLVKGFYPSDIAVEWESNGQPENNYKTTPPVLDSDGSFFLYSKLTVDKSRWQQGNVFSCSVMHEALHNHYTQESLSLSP
light: DIVMTQSPLSLPVTPGEPASISCQASESLVHSNRNTYLHWYLQKPGQSPQLLIYKVSNRFSGVPDRFSGSGSGTDFTLKISRVEAEDVGVYYCSQNTHVPPTFGQGTKVEIERTVAAPSVFIFPPSDEQLKSGTASVVCLLNNFYPREAKVQWKVDNALQSGNSQESVTEQDSKDSTYSLSSTLTLSKADYEKHKVYACEVTHQGLSSPVTKSFNRGEC
notes: as for B1
B8: GpH7-B3 variant K334_18N/GpL16-k0 (antibody, human IgG1, kappa)
heavy: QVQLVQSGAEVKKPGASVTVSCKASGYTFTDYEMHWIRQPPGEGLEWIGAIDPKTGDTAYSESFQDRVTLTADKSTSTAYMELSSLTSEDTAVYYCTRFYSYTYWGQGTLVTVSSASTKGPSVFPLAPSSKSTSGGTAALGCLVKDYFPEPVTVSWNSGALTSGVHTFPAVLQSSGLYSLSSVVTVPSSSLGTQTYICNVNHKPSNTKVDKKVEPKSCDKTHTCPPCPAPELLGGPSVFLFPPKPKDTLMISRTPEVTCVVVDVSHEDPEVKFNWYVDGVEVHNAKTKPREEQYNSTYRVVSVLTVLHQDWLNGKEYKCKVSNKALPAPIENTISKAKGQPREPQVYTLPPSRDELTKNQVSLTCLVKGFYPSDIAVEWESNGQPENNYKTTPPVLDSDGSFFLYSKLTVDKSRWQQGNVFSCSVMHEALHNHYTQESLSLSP
light: DIVMTQSPLSLPVTPGEPASISCQASESLVHSNRNTYLHWYLQKPGQSPQLLIYKVSNRFSGVPDRFSGSGSGTDFTLKISRVEAEDVGVYYCSQNTHVPPTFGQGTKVEIERTVAAPSVFIFPPSDEQLKSGTASVVCLLNNFYPREAKVQWKVDNALQSGNSQESVTEQDSKDSTYSLSSTLTLSKADYEKHKVYACEVTHQGLSSPVTKSFNRGEC
notes: as for B1
B9: GpH7-B3 variant K334_19Q/GpL16-k0 (antibody, human IgG1, kappa)
heavy: not shown
light: DIVMTQSPLSLPVTPGEPASISCQASESLVHSNRNTYLHWYLQKPGQSPQLLIYKVSNRFSGVPDRFSGSGSGTDFTLKISRVEAEDVGVYYCSQNTHVPPTFGQGTKVEIERTVAAPSVFIFPPSDEQLKSGTASVVCLLNNFYPREAKVQWKVDNALQSGNSQESVTEQDSKDSTYSLSSTLTLSKADYEKHKVYACEVTHQGLSSPVTKSFNRGEC
notes: as for B1
B10: GpH7-B3 variant K334_13S/GpL16-k0 (antibody, human IgG1, kappa)
heavy: not shown
light: DIVMTQSPLSLPVTPGEPASISCQASESLVHSNRNTYLHWYLQKPGQSPQLLIYKVSNRFSGVPDRFSGSGSGTDFTLKISRVEAEDVGVYYCSQNTHVPPTFGQGTKVEIERTVAAPSVFIFPPSDEQLKSGTASVVCLLNNFYPREAKVQWKVDNALQSGNSQESVTEQDSKDSTYSLSSTLTLSKADYEKHKVYACEVTHQGLSSPVTKSFNRGEC
notes: as for B1
B11: GpH7-B3 variant K334_05P/GpL16-k0 (antibody, human IgG1, kappa)
heavy: not shown
light: DIVMTQSPLSLPVTPGEPASISCQASESLVHSNRNTYLHWYLQKPGQSPQLLIYKVSNRFSGVPDRFSGSGSGTDFTLKISRVEAEDVGVYYCSQNTHVPPTFGQGTKVEIERTVAAPSVFIFPPSDEQLKSGTASVVCLLNNFYPREAKVQWKVDNALQSGNSQESVTEQDSKDSTYSLSSTLTLSKADYEKHKVYACEVTHQGLSSPVTKSFNRGEC
notes: as for B1
B12: GpH7-B3 variant K334_08L/GpL16-k0 (antibody, human IgG1, kappa)
heavy: not shown
light: DIVMTQSPLSLPVTPGEPASISCQASESLVHSNRNTYLHWYLQKPGQSPQLLIYKVSNRFSGVPDRFSGSGSGTDFTLKISRVEAEDVGVYYCSQNTHVPPTFGQGTKVEIERTVAAPSVFIFPPSDEQLKSGTASVVCLLNNFYPREAKVQWKVDNALQSGNSQESVTEQDSKDSTYSLSSTLTLSKADYEKHKVYACEVTHQGLSSPVTKSFNRGEC
notes: as for B1
B13: GpH7-B3 variant S239_09D/GpL16-k0 (antibody, human IgG1, kappa)
heavy: not shown
light: DIVMTQSPLSLPVTPGEPASISCQASESLVHSNRNTYLHWYLQKPGQSPQLLIYKVSNRFSGVPDRFSGSGSGTDFTLKISRVEAEDVGVYYCSQNTHVPPTFGQGTKVEIERTVAAPSVFIFPPSDEQLKSGTASVVCLLNNFYPREAKVQWKVDNALQSGNSQESVTEQDSKDSTYSLSSTLTLSKADYEKHKVYACEVTHQGLSSPVTKSFNRGEC
notes: as for B1
B14: GpH7-B3 variant K334_16H/GpL16-k0 (antibody, human IgG1, kappa)
heavy: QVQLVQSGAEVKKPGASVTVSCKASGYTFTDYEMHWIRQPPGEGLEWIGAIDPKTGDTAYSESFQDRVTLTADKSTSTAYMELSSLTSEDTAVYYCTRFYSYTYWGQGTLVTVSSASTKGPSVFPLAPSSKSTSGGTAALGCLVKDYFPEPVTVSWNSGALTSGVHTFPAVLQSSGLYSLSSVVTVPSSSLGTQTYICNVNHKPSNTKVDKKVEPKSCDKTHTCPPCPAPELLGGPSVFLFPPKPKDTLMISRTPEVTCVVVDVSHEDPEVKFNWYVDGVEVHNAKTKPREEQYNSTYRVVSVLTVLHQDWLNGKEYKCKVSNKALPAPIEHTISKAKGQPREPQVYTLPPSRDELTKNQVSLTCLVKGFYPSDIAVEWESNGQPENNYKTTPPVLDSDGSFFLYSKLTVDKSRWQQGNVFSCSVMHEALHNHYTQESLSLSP
light: DIVMTQSPLSLPVTPGEPASISCQASESLVHSNRNTYLHWYLQKPGQSPQLLIYKVSNRFSGVPDRFSGSGSGTDFTLKISRVEAEDVGVYYCSQNTHVPPTFGQGTKVEIERTVAAPSVFIFPPSDEQLKSGTASVVCLLNNFYPREAKVQWKVDNALQSGNSQESVTEQDSKDSTYSLSSTLTLSKADYEKHKVYACEVTHQGLSSPVTKSFNRGEC
notes: as for B1
B15: GpH7-B3 variant Q295_10E/GpL16-k0 (antibody, human IgG1, kappa)
heavy: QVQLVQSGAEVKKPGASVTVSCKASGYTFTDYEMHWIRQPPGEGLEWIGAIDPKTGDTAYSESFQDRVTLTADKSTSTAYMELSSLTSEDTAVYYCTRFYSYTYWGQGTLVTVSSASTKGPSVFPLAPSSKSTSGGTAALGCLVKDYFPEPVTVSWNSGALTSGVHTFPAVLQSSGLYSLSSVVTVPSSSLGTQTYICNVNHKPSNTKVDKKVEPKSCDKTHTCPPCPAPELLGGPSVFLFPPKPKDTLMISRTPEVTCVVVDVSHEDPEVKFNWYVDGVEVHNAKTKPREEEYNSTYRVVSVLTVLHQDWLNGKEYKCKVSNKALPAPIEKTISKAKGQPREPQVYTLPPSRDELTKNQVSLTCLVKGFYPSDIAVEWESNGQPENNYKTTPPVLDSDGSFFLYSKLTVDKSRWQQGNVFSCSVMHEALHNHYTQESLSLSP
light: DIVMTQSPLSLPVTPGEPASISCQASESLVHSNRNTYLHWYLQKPGQSPQLLIYKVSNRFSGVPDRFSGSGSGTDFTLKISRVEAEDVGVYYCSQNTHVPPTFGQGTKVEIERTVAAPSVFIFPPSDEQLKSGTASVVCLLNNFYPREAKVQWKVDNALQSGNSQESVTEQDSKDSTYSLSSTLTLSKADYEKHKVYACEVTHQGLSSPVTKSFNRGEC
notes: as for B1
B16: GpH7-B3 variant K334_15Y/GpL16-k0 (antibody, human IgG1, kappa)
heavy: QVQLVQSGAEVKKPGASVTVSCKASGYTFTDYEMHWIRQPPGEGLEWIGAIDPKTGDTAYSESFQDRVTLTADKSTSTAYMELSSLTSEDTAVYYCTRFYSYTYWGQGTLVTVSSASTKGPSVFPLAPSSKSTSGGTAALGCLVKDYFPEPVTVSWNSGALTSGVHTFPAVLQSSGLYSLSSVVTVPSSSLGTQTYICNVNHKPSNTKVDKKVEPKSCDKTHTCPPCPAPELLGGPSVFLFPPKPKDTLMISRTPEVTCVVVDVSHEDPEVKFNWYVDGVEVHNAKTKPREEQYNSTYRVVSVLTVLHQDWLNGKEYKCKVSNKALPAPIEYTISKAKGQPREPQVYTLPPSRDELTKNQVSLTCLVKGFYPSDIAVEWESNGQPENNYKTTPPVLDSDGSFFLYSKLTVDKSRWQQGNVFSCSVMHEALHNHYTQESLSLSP
light: DIVMTQSPLSLPVTPGEPASISCQASESLVHSNRNTYLHWYLQKPGQSPQLLIYKVSNRFSGVPDRFSGSGSGTDFTLKISRVEAEDVGVYYCSQNTHVPPTFGQGTKVEIERTVAAPSVFIFPPSDEQLKSGTASVVCLLNNFYPREAKVQWKVDNALQSGNSQESVTEQDSKDSTYSLSSTLTLSKADYEKHKVYACEVTHQGLSSPVTKSFNRGEC
notes: as for B1
B17: GpH7-B3 variant S267_02A/GpL16-k0 (antibody, human IgG1, kappa)
heavy: not shown
light: DIVMTQSPLSLPVTPGEPASISCQASESLVHSNRNTYLHWYLQKPGQSPQLLIYKVSNRFSGVPDRFSGSGSGTDFTLKISRVEAEDVGVYYCSQNTHVPPTFGQGTKVEIERTVAAPSVFIFPPSDEQLKSGTASVVCLLNNFYPREAKVQWKVDNALQSGNSQESVTEQDSKDSTYSLSSTLTLSKADYEKHKVYACEVTHQGLSSPVTKSFNRGEC
notes: as for B1
B18: GpH7-B3 variant K334_14T/GpL16-k0 (antibody, human IgG1, kappa)
heavy: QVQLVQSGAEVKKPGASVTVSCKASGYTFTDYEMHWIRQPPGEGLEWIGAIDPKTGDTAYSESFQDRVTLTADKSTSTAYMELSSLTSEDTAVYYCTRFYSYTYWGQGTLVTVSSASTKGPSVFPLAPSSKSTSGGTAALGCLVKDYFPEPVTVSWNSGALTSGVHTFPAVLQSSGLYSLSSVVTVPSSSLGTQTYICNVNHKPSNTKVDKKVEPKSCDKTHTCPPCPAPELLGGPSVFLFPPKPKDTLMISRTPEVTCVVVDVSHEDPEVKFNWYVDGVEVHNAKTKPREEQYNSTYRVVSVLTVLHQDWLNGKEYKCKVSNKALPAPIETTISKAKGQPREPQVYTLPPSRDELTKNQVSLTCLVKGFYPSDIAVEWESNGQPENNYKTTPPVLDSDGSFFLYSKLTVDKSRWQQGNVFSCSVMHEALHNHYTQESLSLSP
light: DIVMTQSPLSLPVTPGEPASISCQASESLVHSNRNTYLHWYLQKPGQSPQLLIYKVSNRFSGVPDRFSGSGSGTDFTLKISRVEAEDVGVYYCSQNTHVPPTFGQGTKVEIERTVAAPSVFIFPPSDEQLKSGTASVVCLLNNFYPREAKVQWKVDNALQSGNSQESVTEQDSKDSTYSLSSTLTLSKADYEKHKVYACEVTHQGLSSPVTKSFNRGEC
notes: as for B1
B19: GpH7-B3 variant Q295_02A/GpL16-k0 (antibody, human IgG1, kappa)
heavy: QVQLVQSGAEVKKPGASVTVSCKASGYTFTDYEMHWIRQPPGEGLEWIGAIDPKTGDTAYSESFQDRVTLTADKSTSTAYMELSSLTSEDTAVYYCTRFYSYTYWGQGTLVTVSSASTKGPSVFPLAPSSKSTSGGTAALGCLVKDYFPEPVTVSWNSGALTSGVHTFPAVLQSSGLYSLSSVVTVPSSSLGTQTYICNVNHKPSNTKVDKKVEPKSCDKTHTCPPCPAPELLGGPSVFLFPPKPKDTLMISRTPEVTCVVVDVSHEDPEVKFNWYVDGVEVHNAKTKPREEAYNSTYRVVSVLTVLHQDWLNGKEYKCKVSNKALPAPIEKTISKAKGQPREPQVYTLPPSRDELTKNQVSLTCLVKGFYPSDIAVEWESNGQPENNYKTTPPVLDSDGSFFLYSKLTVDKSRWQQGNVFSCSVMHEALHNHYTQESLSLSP
light: DIVMTQSPLSLPVTPGEPASISCQASESLVHSNRNTYLHWYLQKPGQSPQLLIYKVSNRFSGVPDRFSGSGSGTDFTLKISRVEAEDVGVYYCSQNTHVPPTFGQGTKVEIERTVAAPSVFIFPPSDEQLKSGTASVVCLLNNFYPREAKVQWKVDNALQSGNSQESVTEQDSKDSTYSLSSTLTLSKADYEKHKVYACEVTHQGLSSPVTKSFNRGEC
notes: as for B1
B20: GpH7-B3 variant S298_14T/GpL16-k0 (antibody, human IgG1, kappa)
heavy: not shown
light: DIVMTQSPLSLPVTPGEPASISCQASESLVHSNRNTYLHWYLQKPGQSPQLLIYKVSNRFSGVPDRFSGSGSGTDFTLKISRVEAEDVGVYYCSQNTHVPPTFGQGTKVEIERTVAAPSVFIFPPSDEQLKSGTASVVCLLNNFYPREAKVQWKVDNALQSGNSQESVTEQDSKDSTYSLSSTLTLSKADYEKHKVYACEVTHQGLSSPVTKSFNRGEC
notes: as for B1
B21: GpH7-B3 variant K334_07I/GpL16-k0 (antibody, human IgG1, kappa)
heavy: not shown
light: DIVMTQSPLSLPVTPGEPASISCQASESLVHSNRNTYLHWYLQKPGQSPQLLIYKVSNRFSGVPDRFSGSGSGTDFTLKISRVEAEDVGVYYCSQNTHVPPTFGQGTKVEIERTVAAPSVFIFPPSDEQLKSGTASVVCLLNNFYPREAKVQWKVDNALQSGNSQESVTEQDSKDSTYSLSSTLTLSKADYEKHKVYACEVTHQGLSSPVTKSFNRGEC
notes: as for B1
B22: GpH7-B3 variant K334_04F/GpL16-k0 (antibody, human IgG1, kappa)
heavy: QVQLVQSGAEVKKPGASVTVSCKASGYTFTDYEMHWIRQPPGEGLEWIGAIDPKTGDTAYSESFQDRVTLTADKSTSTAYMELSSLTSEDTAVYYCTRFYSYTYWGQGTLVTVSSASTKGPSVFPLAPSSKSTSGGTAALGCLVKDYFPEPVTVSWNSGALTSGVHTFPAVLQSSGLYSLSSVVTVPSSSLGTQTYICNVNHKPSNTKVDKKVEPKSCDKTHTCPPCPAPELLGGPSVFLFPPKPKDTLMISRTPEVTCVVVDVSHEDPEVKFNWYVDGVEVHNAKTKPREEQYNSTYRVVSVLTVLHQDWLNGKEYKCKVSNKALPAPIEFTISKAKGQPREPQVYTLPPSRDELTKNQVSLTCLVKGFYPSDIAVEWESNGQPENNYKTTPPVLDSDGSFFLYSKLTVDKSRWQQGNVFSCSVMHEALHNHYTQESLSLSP
light: DIVMTQSPLSLPVTPGEPASISCQASESLVHSNRNTYLHWYLQKPGQSPQLLIYKVSNRFSGVPDRFSGSGSGTDFTLKISRVEAEDVGVYYCSQNTHVPPTFGQGTKVEIERTVAAPSVFIFPPSDEQLKSGTASVVCLLNNFYPREAKVQWKVDNALQSGNSQESVTEQDSKDSTYSLSSTLTLSKADYEKHKVYACEVTHQGLSSPVTKSFNRGEC
notes: as for B1

Molecular target: T1, FcγRIIIa extracellular domain with C-terminal His tag (human, UniProt P08637 17-208)
T1 construct: extracellular domain; also called FcgRIIIa; 3a
Assay: SPR, relative to GpH7-B3/GpL16-k0

T1 sequence (P08637 17-208): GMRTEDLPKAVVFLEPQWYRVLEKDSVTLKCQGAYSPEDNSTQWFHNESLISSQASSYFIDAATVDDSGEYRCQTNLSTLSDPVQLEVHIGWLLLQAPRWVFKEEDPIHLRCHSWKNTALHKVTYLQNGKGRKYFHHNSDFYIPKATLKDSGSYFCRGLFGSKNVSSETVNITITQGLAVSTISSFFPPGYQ

Point of comparison: B13, Ho/Con_3a 192 % of control (=100). Against it:
- B1 — lower, 154 % of control (=100)
- B2 — higher, 206 % of control (=100)
- B3 — lower, 108 % of control (=100)
- B4 — lower, 150 % of control (=100)
- B5 — lower, 160 % of control (=100)
- B6 — lower, 170 % of control (=100)
- B7 — lower, 106 % of control (=100)
- B8 — lower, 156 % of control (=100)
- B9 — lower, 150 % of control (=100)
- B10 — lower, 153 % of control (=100)
- B11 — lower, 165 % of control (=100)
- B12 — lower, 178 % of control (=100)
- B14 — lower, 153 % of control (=100)
- B15 — lower, 111 % of control (=100)
- B16 — lower, 181 % of control (=100)
- B17 — lower, 145 % of control (=100)
- B18 — lower, 163 % of control (=100)
- B19 — lower, 108 % of control (=100)
- B20 — lower, 107 % of control (=100)
- B21 — lower, 180 % of control (=100)
- B22 — lower, 168 % of control (=100)
